Assay [1] has as its target SNT, residues 1–215 of the HsdS (specificity) subunit of EcoR124I (UniProt P10485). The experiment in a line: AUC; sedimentation velocity of SNT alone at 25 μM; 30,000 rpm, 10 °C, buffer A (10 mM Tris–HCl, pH 8.0, 100 mM NaCl, 1 mM Na2EDTA), 280 nm; c(s)/c(M) analysis with SEDFIT.
The target of assay [2] is M.EcoR124INT methyltransferase (hetero-tetramer of two SNT and two M subunits) (UniProt P10485).
Assay [3] has as its target SNT, residues 1–215 of the HsdS (specificity) subunit of EcoR124I (UniProt P10485). Briefly: AUC; sedimentation velocity of reconstituted M.EcoR124INT at 2.6 μM; 30,000 rpm, 10 °C, buffer A, 280 nm; c(s)/c(M) analysis with SEDFIT.
Assay [4] shares this target. Briefly: AUC; sedimentation equilibrium of reconstituted M.EcoR124INT at 2.5 to 8.8 μM; 6500 rpm and 8500 rpm, 276 nm, global fit to a single ideal species model.

Consider three molecules from publication PMC2877798.

In general, stoichiometry N refers to a count of units in the complex or per binding partner. Turning to “SNT, residues 1–215 of the HsdS (specificity) subunit of EcoR124I (from UniProt P10485 1-215) (domain or fragment)”, the stoichiometry N in assay [1] came out at 2.

B1: ocr (“overcome classical restriction”) protein (natural protein)
chain: MAMSNMTYNNVFDHAYEMLKENIRYDDIRDTDDLHDAIHMAADNAVPHYYADIFSVMASEGIDLEFEDSGLMPDTKDVIRILQARIYEQLTIDLWEDAEDLLNEYLEEVEEYEEDEE
Consider B1, for which the inhibition of in vitro DNA methylation by M.EcoR124INT (EcoRI protection assay; 50 nM MTase, 50 nM ocr dimer incubated with the MTase before DNA, 37 °C, 10 mM MgCl2) in assay [2] stood at 50%.

B2: M subunit (HsdM) of EcoR124I (natural protein)
chain: MKMTSIQQRAELHRQIWQIANDVRGSVDGWDFKQYVLGALFYRFISENFSSYIEAGDDSICYAKLDDSVITDDIKDDAIKTKGYFIYPSQLFCNVAAKANTNDRLNADLNSIFVAIESSAYGYPSEADIKGLFADFDTTSNRLGNTVKDKNARLAAVLKGVEGLKLGDFNEHQIDLFGDAYEFLISNYAANAGKSGGEFFTPQHVSKLIAQLAMHGQTHVNKIYDPAAGSGSLLLQAKKQFDNHIIEEGFFGQEINHTTYNLARMNMFLHNINYDKFDIKLGNTLTEPHFRDEKPFDAIVSNPPYSVKWIGSDDPTLINDERFAPAGVLAPKSKADFAFVLHALNYLSAKGRAAIVCFPGIFYRGGAEQKIRQYLVDNNYVETVISLAPNLFFGTTIAVNILVLSKHKTDTNVQFIDASELFKKETNNNILTDAHIEQIMQVFASKEDVAHLAKSVAFETVVANDYNLSVSSYVEAKDNREIIDIAELNAELKTTVSKIDQLRKDIDAIVAEIEGCEVQK
As to B2, the stoichiometry N (M per SNT (2:2 hetero-tetramer)) in assay [3] and in assay [4] was 1 each time.
